Assay results reported in article PMC3741172.

Target: Reelin from frontal cortex of non-demented (ND) subjects (human (endogenous in frontal cortex)) (UniProt P78509)
Assay: native gel or EMSA; blue native-PAGE of human frontal cortex extracts in 25 mM Bis-Tris pH 7.0, 0.5% DDM, 20% glycerol; samples not boiled; anti-Reelin immunoblot

stoichiometry N: 2
Substance: Reelin from frontal cortex of non-demented (ND) subjects (from UniProt P78509 26-3460) (natural protein)
